Article PMC4203850, “Conformational Antibody Binding to a Native, Cell-Free Expressed GPCR in Block Copolymer Membranes” (PLoS ONE, 2014)

Target: T1, radiolabeled (I-125) SDF-1α (stromal cell-derived factor-1 alpha) (UniProt P48061-2 22-89, 125I radiolabel (position not given))
T1 construct: SDF-1α (stromal cell-derived factor-1 alpha), the natural ligand of CXCR4; the alpha isoform
Assay: radioligand binding; saturation assay: constant CXCR4-ACM concentration, varying 125I-SDF, with and without 0.5 µM unlabeled SDF; 96-well plate, filtration; GraphPad Prism
Conditions: both partners purified

T1 sequence (P48061 22-89): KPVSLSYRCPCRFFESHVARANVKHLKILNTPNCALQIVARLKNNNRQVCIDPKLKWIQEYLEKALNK

Kd: 8.4 nM
B1: CXCR4 embedded in polymersome membranes (CXCR4-ACMs) (receptor, UniProt P61073 1-352, looked up)
chain: MEGISIYTSDNYTEEMGSGDYDSMKEPCFREENANFNKIFLPTIYSIIFLTGIVGNGLVILVMGYQKKLRSMTDKYRLHLSVADLLFVITLPFWAVDAVANWYFGNFLCKAVHVIYTVNLYSSVLILAFISLDRYLAIVHATNSQRPRKLLAEKVVYVGVWIPALLLTIPDFIFANVSEADDRYICDRFYPNDLWVVVFQFQHIMVGLILPGIVILSCYCIIISKLSHSKGHQKRKALKTTVILILAFFACWLPYYIGISIDSFILLEIIKQGCEFENTVHKWISITEALAFFHCCLNPILYAFLGAKFKTSAQHALTSVSRGSSLKILSKGKRGGHSSVSTESESSSFHSS
notes: Receptor sits in polybutadiene-b-poly(ethylene oxide) polymersome membrane with 1% DSPE-PEG-biotin; The introduction speaks in general of 'native, full-length membrane proteins' for this approach; also called C4-ACMs; native CXCR4
